B1: 86 (protein, listed as Sphingopyxis alaskensis)
chain: MALGASVASREASAQMAKAPMRKIATEEAFATPELAKAWLEIARSEPNSSLDIPTGILSIFDNPRPGSNQDRFRRQLLDVDAERIRDMDEAGVDMQLLSVTIPGVQIFEPARAGELAVTTNDHLAAAIARRPTRFAGLACFAPHDPVQATREMERAVNALGLKGFIVNSHTQDLYLDDPRFAPVLEAAQSLDCPIYLHPRAPSNGMAAPFRDYSMGGSIWGFGVEAGTHAVRMILSGVFDRYPRLRIVLGHMGEALPFWMWRLDHMAARRAKDGRMKPLSLAPSEYFKRNFAVTTSGFESPDVLDLVIKVAGIENIMWAIDYPYESSRDAVTFIEGADLTASQRASIFHRNAVRHFRLS
B2: 80 (protein, listed as Cordyceps militaris)
chain: MAAASTPVVVDIHTHMYPPSYIAMLEKRQTIPLVRTFPQADEPRLILLSSELAALDAALADPAAKLPGRPLSTHFASLAQKMHFMDTNGIRVSVISLANPWFDFLAPDEAPGIADAVNAEFSDMCAQHVGRLFFFAALPLSAPVDAVKASIERVKNLKYCRGIILGTSGLGKGLDDPHLLPVFEAVADAKLLVFLHPHYGLPNEVYGPRSEEYGHVLPLALGFPMETTIAVARMYMAGVFDHVRNLQMLLAHSGGTLPFLAGRIESCIVHDGHLVKTGKVPKDRRTIWTVLKEQIYLDAVIYSEVGLQAAIASSGADRLMFGTDHPFFPPIEEDVQGPWDSSRLNAQAVIKAVGEGSSDAAAVMGLNAVRVLSLKAE
B3: 6 (protein)
chain: MAEILSPEESIYYSKLSNDILAEGIKKNPTRFRGFAALPTPDPIQAAMELERCIKLGGFVGAIINGHINGHYLDEIQFDPILEAADALDVPLYIHPAVPPKAIIDTYYKMNDTYAQTVMVSGGWGWHIETGVHVLRLISSGVFDRHPNLKIVIGHLGEGLPFFMHRLNNAIGGNLKKSYSTYLKENIYYTISGFNDPDLFQFVLKKVGENNIMFSSDYPFNFPKREVELFNELNISEEVREKISFKNAERILKI
modifications: Treponema brennaborense
B4: 88 (protein, listed as Starkeya novella)
chain: MARKIALEEHFTTPELAGKYVARPTQSDALFADIERRLADFDELRLEMMDRAEIDLMVLSVTTPGVQGVRDTGEAIRLARGANDFLAREVQKRPSRYAGFAHLAMQDAEAAATELERAVRELGFRGALINGQTNGHYLDEDQYAPFWERVQELDVPVYLHPGNMADSPAMFAHRPELGGPIWAWTAETAAHALRLVFGGTFTRFPGAKVILGHMGETLPFLLWRLDSRREFDLGEKLAPDALPSAIIKRNIAVTTSGVCDPAPLVAALQALSDDNVMFSVDYPYEDPQLASKFIETAPIGEETRAKVCHGNAERLLGL
B5: 81 (protein, listed as Verticillium dahliae)
chain: MAASTKPKVVDIHTHMYPPSYIDILTSRTAIPVVRTFPQAADPRLILLDAEQQALDAALQDPTAKPPGRPLTSHYASLDQKIHFMDTHSIDISVVSLANPWLDFIEPKEAAATARSVNDEFEAMCASQPGRLFFFAALPLTAPLPALLEAVRHVAELEHCRGVILGTSGLGSGLDDPELVPVLEAVAAAALTVFLHPHYGLPNDVWGPRASAEYGHVLPLALGFPMETTIAVARMYLAGVFDRVPALRMLLAHSGGTLPFLAGRIESCILHDGQLVAEGKVGAARRTIWDVLREQVYLDAVIYSEIGLKAAIAASGGADRLMFGTDHPFFPPLGTDEQAKKESRINAGGSRPMITGNAMINGHGGLCNHITQSDYQDVVL
B6: 7 (protein, listed as Legionella pneumophila)
chain: MAIVDFETHFITEACIDYLTQRQEVPKLVPELNGAYTMCFTPDVSLFHTSALMEELLSLNEQRLAIMDQAGVTIQVLSLTTINGIDSCPGDENKSTALAREVNDQLYSAIQRHPERFKGFASISPYDVKEGVKELERAISQLGFVGWLTHSNFGEDNYLDDKTYWPLLEAAEGLNIPIYLHPNVPIMREFGKYGFALGGSALGFEFDTALCLMRMILGGVFDAFPKLKIMLGHLGETMPFLMERLDHLYRIPDLKAYRPSIQRIPSEVLRQNVYITTSGRFFVPALRYVLEVMGEDRVLFASDYPMESLLDATRFIQDSDLSNQTKQKIFSINAKNLNLI
B7: 82 (protein, listed as Rhodopseudomonas palustris)
chain: MAQNETPVIAIEEHYWDPEMVARFPAGENASPFSTLLTELGDVRLRAMDEAGIDVQVLSHGAPAAQKLPPDVAPELTRRVNDRLAEACARFPNRFAAFAALPTPAPEAAARELERCVRDLGFKGAMIHGLTNGLFIDDKRFWPIFEVAEKLDVPIYLHPSVPHADVTRYYYDDYAREFPTVIRPAWGFTVETATQAIRLILSRALESYPRLQIILGHLGETLPFLLWRINQALARPGQTPLDFRKQFCDHFHVTTSGFFSTPALICTMLELGIDRIMFAVDYPYVVNRDGTDWVQQLQISPDDKRKLVGGNARRLLKL
B8: 89 (protein, listed as Erwinia billingiae)
chain: MATNRRDFLKNATAVMAGSTVFAGSSHFASAAAVEPAAVQPPRRIIALEEHFMLPEFVGYLHETQQNLRNGLVDKVVTPLSDFGKGRLEIMDKNGVDFAVLSLSGPGVQAEPDRVKAVRLARYANDKLATEMQKNPRRYGGFAHLAMQDPLAAANELERCVKQLHMQGGMINGETDGLYLDDRRYDVFWERVEALNVPIYIHPGNPPDYPHMFAGHPEMWGPVWSWAVETCSHALRLIFSGTFDRYPGARVILGHMGETLPIQLWRLDSRYQIANQTFAIKHPPSWYAKKNITITTSGVCNDAALRCALDSMGSENVMFSIDYPFESTEIAVNWLKTANITEQERNAVAWGNATSILRLGA
B9: 87 (protein, listed as Novosphingobium sp.)
chain: MASDIATAADLQTGGRQGYLRIATEEAFATRDQIDVYLRMVRDGTADRGMTSLWGFYAQSPSARATQIIERLLDLGEQRLADMDAAGIDKAVLALTSPGVQPLLDMEEARRIAGNANDRLAERCAAHPDRFIGMTAVAPQDPQWSAREILRGATQLGFKGVQINSHTQGRYLDEPFFDPIFRALGDVGQPLYIHPGTPPDSMIGPLLDAGLDGAIYGFGVETGMHLLRLITAGIFDRYPDLQIMVGHMGEALPYWLYRLDYMHQAGIRSQRYERMRPLKRTIAGYFRSNVLVTCSGMAWEPAIQFARQVMGEDRVMYAMDYPYQYEADEVRALDVMDLSPESKRKFFQTNAERWFDL
B10: 91 (protein, listed as Botryotinia fuckeliana)
chain: MASFVCNFGKAALATLLLTPSISAADYTPQETVLNSGRPTFYDASTSIPGKIALEEHVGNDLLNGLYTVPYYPNTNEPQYSDSVYIADVGEKMLDIPSRIANMDAANISISVLTFGGPGIQGVFNATYATYAAGYVNDYLYKNYKNNANYTGRFEFWCSNALQEPSKAATELERCVKELGGVGSFVGGYTNNGGINGTANDIVYLDDPSMEPFLEKVVELDVPIYLHPRMPAPSQLLSVKGYEFLGSSPWGFSSETGAHALRLMVSGTLDKYPTLKIVLGHCGEGLPFFLPRIDQRLRHFKKELFNNTLTMEEYWLRNFYVTTAGVQDAGTLVDTIKRTGEDRVMFSVDYPFEDTVEIAGWFDRLEMNTLTKTKLAYENAKALLKLTCYVDAEKRPRIFNKHHVDDIIKHTHSPCIWTLFH
B11: 90 (protein)
chain: MAATIDRVLYLGNATQRRYTSATVSVPRIFGKVALEEHVGTSIWAKYNLTPPANAVVGVLNRPPTLPNTLDTIARLDDINGRLSSMNHSGIGYVIVSLSSPGIQGVHDTALAIKFSTDINDELYLKYANAYPDKFAFFATVPMQDPVAAASELERAVSLLGAKGAAINGYTDIGPPGNSTTRYLDDPINAPFWSKVAALNVPIYLHPRAPPPSQQLVYNYPNNSLSAYPGLVTGGFAYGAETAVHALRLMLSGLFDTHPNIQIILGHAAEGLPFLIHRSDTQLAAEVPGTNGPYKRPLRYYLRNNFYATLSGVRRLSTTQCTLAEMGEERVLFSVDYPFQSNEDAADWFDGVEGMSVETKRKVARGNARRLFNLTVDLDERQIDGDFM
modifications: Pyrenophora tritici-repentis
B12: 85 (protein, listed as Maritimibacter alkaliphilus)
chain: MAADRKPGLVSVEEGFMIPEVVAELSRIAGGVPSMKSGPIAGPFMDDLLDIGKGRVARMDADGVAVQILALAAPGVQKFDPDTALALSRLTNDRLAEAIAAHPARFGGLAAAPPQAAREGAKELDRAITTLGLNGLIVNSHTNDLYLDDPSFWPLLEAAEALDVPVYLHPREPAAGIEGGLMAMTGFTVGWAYAVETGTHLLRMIAAGVFDRFPRLRIVLGHLGEMIPFMLDRIDNRYPFEMGVTGAKPLPRKPSDYFRDHVTVATSGMNFNAPMRAAIEVLGADKVMFAADYPMERQDEEVAKFAALDLTPDERKRIGEDNARRVFGL
B13: 84 (protein, listed as Mycobacterium rhodesiae)
chain: MASLIALEEHYAWDPASEGNVVATWLRANNGVAYDRLYDRGPLRIEQMDAAGIDFQILSLFDPGVQDEVDAVRAVDLARRANDDLAESVRANPSRFGGFATLATQQPDAAVAEFDRAVTELGLVGGLINGHCQGRYLDDPAYEALFSRAEALGAPIYLHPTTPHPAVMDAWFAPYVGDGLHLASWGFAAETGTHVLRLIYSGLFDKFPRLQMIIGHLGEMLPFAAYRIDRYYGLGGGGTGHTLQHLPSDYLRNNFHVTTSGNFCSPALDCTLDVMGADRVMFSVDYPMDDNQTGADFLASYPMDDTNRRKVASENALRLFGDRIPAALRN
B14: 83 (protein, listed as Mycobacterium rhodesiae)
chain: MALIALEEHYAWSPVSAGNVVGSWLETHNVTAYQRLYDRGPLRLEQMDAAGIDFQILSLFDPGVQDDDDTARAVENARRANDDLAETVRAAPDRFGGFATLAPQDPDAAAAELERAVGELGLVGGLINGHTHGRYLDDPAYLGLFECAQRLGVPIYLHPTTPHPAVMDAWFAPYVKDGLHLASWGFAAETGTHALRLIYSGLFDTFPRLQMILGHLGEMLPYAAYRIDRYYGLGGGDDGGRLARLPSEYLRDNFHVTTSGNFNPVAFACALDVMGPDRLMFSVDYPMDDNVTGAEFLRNLEVDDDVRRKVAGENALQLFGDKIPRR

Assay: 14C assay with IPTG-induced recombinant E. coli cells (14CO2 capture from [14C]-carboxyl-labeled dicamba)
Details: for Dicamba Decarboxylase Activity: IPTG-induced recombinant E. coli cells, [14C]-carboxyl-labeled dicamba, 14CO2 capture; for Enzymatic Detection level: dicamba decarboxylation activity of the protein of the given SEQ ID NO

Molecule	Dicamba Decarboxylase Activity	Enzymatic Detection level
B1	Low	Low
B2	Low	Low
B3	No	No
B4	High	High
B5	High	High
B6	No	No
B7	Low	Low
B8	High	High
B9	High	High
B10	Low	Low
B11	Low	Low
B12	Low	Low
B13	Low	Low
B14	Low	Low

Reference: patent publication US20140287419A1, “Compositions Having Dicamba Decarboxylase Activity and Methods of Use” (priority 2013, published 2014)
